Results published in article PMC12780214 (NPJ Vaccines, 2025).

T1: NiVM G head domain (residues 176-602) (Nipah virus Malaysia (NiVM), UniProt Q9IH62 176-602)
T1 sequence: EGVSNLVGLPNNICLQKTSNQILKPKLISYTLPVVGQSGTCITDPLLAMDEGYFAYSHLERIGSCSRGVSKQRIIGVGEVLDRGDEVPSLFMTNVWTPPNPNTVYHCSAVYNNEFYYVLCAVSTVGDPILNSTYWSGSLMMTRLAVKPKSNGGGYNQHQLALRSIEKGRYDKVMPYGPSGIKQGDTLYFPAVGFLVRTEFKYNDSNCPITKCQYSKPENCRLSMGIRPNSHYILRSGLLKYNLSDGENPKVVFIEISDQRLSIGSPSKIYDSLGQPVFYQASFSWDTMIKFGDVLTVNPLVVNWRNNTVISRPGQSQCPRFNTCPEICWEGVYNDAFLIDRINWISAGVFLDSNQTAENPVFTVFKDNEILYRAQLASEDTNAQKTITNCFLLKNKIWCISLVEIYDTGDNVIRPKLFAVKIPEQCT


Tests used:
[1] = target: T2, NiVM G head domain (residues 176-602) (Nipah virus Malaysia (NiVM), UniProt Q9IH62); test: BLI
[2] = target: MojV G head domain (residues 176-625) (Mòjiāng virus (YP_009094095), UniProt W8TIR7); test: ELISA
[3] = target: NiVM G ectodomain (residues 96-602) (Nipah virus Malaysia (NP_112027), UniProt Q9IH62); test: ELISA
[4] = target: LayV G head domain (residues 176-625) (Langya virus (UUV47206), UniProt A0AAX3C924); test: ELISA
[5] = target: T2, NiVM G head domain (residues 176-602); test: cryo-EM structure
[6] = target: T1, NiVM G head domain (residues 176-602); test: BLI
[7] = target: deglycosylated NiVM G head domain without the His-tag (for crystallization) (Nipah virus Malaysia (NP_112027), UniProt Q9IH62); test: crystal structure
[8] = target: HeV G head domain (residues 176-605) (Hendra virus (NP_047112, isolate …, UniProt O89343)); test: ELISA
HeV G head domain (residues 176-605) (Hendra virus, sequence (O89343 176-604): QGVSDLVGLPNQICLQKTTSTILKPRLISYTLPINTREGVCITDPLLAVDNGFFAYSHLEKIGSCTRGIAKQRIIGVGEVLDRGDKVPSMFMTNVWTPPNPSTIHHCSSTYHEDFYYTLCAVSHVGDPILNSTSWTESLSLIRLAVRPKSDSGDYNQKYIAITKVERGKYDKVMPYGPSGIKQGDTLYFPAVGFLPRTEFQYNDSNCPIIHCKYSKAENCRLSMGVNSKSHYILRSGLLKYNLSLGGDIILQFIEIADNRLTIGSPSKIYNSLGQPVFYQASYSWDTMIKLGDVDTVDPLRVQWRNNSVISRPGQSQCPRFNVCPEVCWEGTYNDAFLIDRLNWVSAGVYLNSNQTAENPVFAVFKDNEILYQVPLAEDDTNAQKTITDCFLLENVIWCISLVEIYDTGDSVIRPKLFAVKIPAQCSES

| Binder | binding result [1] | binding result [2] | binding result [3] | binding result [4] | binding result [5] | other results |
| --- | --- | --- | --- | --- | --- | --- |
| S1E2 mAb (IgG) (antibody, V domains shown) VH: QMQLQESGPGLVKPSQSLSLTCSVTGYSITSGYYWNWIRQFSGNKLEWMGYINHDGSKNYNPSLKNRISITRDTSKNQFFLKLNSVTTEDTATYYCARDYGSYYYPMDYWGQGTSVTVSS VL: EIVLTQSPPIMSASPGEKVTITCSASSSVTFMHWFQQKPGTSPKLWIFSTSNLASGVPARFSGSGSGTSYSLTISRMEAEDAATYYCQQRSSYPFTFGSGTKLEIK | binds | no binding (tested: 1 μg/mL) | binds | no binding (tested: 1 μg/mL) | – | – |
| S1E2 Fab (Fab, V domains shown) VH: QMQLQESGPGLVKPSQSLSLTCSVTGYSITSGYYWNWIRQFSGNKLEWMGYINHDGSKNYNPSLKNRISITRDTSKNQFFLKLNSVTTEDTATYYCARDYGSYYYPMDYWGQGTSVTVSS VL: EIVLTQSPPIMSASPGEKVTITCSASSSVTFMHWFQQKPGTSPKLWIFSTSNLASGVPARFSGSGSGTSYSLTISRMEAEDAATYYCQQRSSYPFTFGSGTKLEIK | – | – | – | – | binds | – |
| S2B10 mAb (IgG) (antibody, V domains shown) VH: QMQLQESGPGLVKPSQSLSLTCTVTGYSITSDYAWNWIRQFPRNKLEWMGFITYSGSTSYNPSLKSRISLTRDTSKNQFFLQLSSVTTEDTATYYCARSGANWDWFAYWGQGTLVTVSA VL: DIQMTQSPASLAVSLGQRATISCRASESVDNYGNSFMHWYQQKPGQPPKLLIYRASKLESGIPARFSGSGSRTDFTLTINPVEADDVATYHCQQSNEDPWTFGGGTKLEIK | binds | no binding (tested: 1 μg/mL) | binds | no binding (tested: 1 μg/mL) | – | – |
| S2B10 Fab (Fab, V domains shown) VH: QMQLQESGPGLVKPSQSLSLTCTVTGYSITSDYAWNWIRQFPRNKLEWMGFITYSGSTSYNPSLKSRISLTRDTSKNQFFLQLSSVTTEDTATYYCARSGANWDWFAYWGQGTLVTVSA VL: DIQMTQSPASLAVSLGQRATISCRASESVDNYGNSFMHWYQQKPGQPPKLLIYRASKLESGIPARFSGSGSRTDFTLTINPVEADDVATYHCQQSNEDPWTFGGGTKLEIK | – | – | – | – | binds | – |
| LN3D3 Fab (Fab, V domains shown) VH: EVKLEESGPELVKPGASVKMSCKASGYTFTNYVMHWVKQKPGQGLEWIGYVNPYNDGTQYNEKFRDKATLTSDKSSSTVYMELNSLTSEDSAVYYCTRGDYPYWVFEVWGAGTTVTVSS VL: EIQMTQSPATLSVTPGDSVSLSCRASQSISNNLHWYQQKSHESPRLLIKYASQSISGIPSRFSGSGSGTDFTLSINNLETEDFGMYFCQHSDSWPFTFGSGTKLEIK | – | – | – | – | binds | – |
| LN3D3 mAb (IgG) (antibody, V domains shown) VH: EVKLEESGPELVKPGASVKMSCKASGYTFTNYVMHWVKQKPGQGLEWIGYVNPYNDGTQYNEKFRDKATLTSDKSSSTVYMELNSLTSEDSAVYYCTRGDYPYWVFEVWGAGTTVTVSS VL: EIQMTQSPATLSVTPGDSVSLSCRASQSISNNLHWYQQKSHESPRLLIKYASQSISGIPSRFSGSGSGTDFTLSINNLETEDFGMYFCQHSDSWPFTFGSGTKLEIK | binds | no binding (tested: 1 μg/mL) | binds | no binding (tested: 1 μg/mL) | – | – |
| human ephrin-B2 (residues 27-167) (receptor) SIVLEPIYWNSSNSKFLPGQGLVLYPQIGDKLDIICPKVDSKTVGQYEYYKVYMVDKDQADRCTIKKENTPLLNCAKPDQDIKFTIKFQEFSPNLWGLEFQKNKDYYIISTSNGSLEGLDNQEGGVCQTRAMKILMKVGQD | – | – | – | – | – | binding result [6]: binds |
| LN1F9 Fab (Fab, V domains shown) VH: EVKLVESGGGLVKPGGSLKLSCAASGFSFRNYAMSWVRQSPEKRLEWVAEVSSGGGYTYYPDTVTGRFTISRDNAKNILYLEMSSLRSEDTAMYYCTRDPDSSGYLAWFAYWGQGTLVTVSA VL: DILLTQSPASLSASVGETVTITCRASENINSYLAWYQQKQGKSPQLLVYNAKTLAEGVPSRFSGSGSDTQFSLKINTLQPEDFGTYYCQHHSGTPYTFGGGTKLEIK | – | – | – | – | – | binding result [7]: binds |
| LN1F9 mAb (IgG) (antibody, V domains shown) VH: EVKLVESGGGLVKPGGSLKLSCAASGFSFRNYAMSWVRQSPEKRLEWVAEVSSGGGYTYYPDTVTGRFTISRDNAKNILYLEMSSLRSEDTAMYYCTRDPDSSGYLAWFAYWGQGTLVTVSA VL: DILLTQSPASLSASVGETVTITCRASENINSYLAWYQQKQGKSPQLLVYNAKTLAEGVPSRFSGSGSDTQFSLKINTLQPEDFGTYYCQHHSGTPYTFGGGTKLEIK | binds | no binding (tested: 1 μg/mL) | binds | no binding (tested: 1 μg/mL) | – | binding result [8]: binds |
